Data as given in article PMC9519457 (Nature Microbiology, 2022).
Where a chain is given by its changes, count along the chain named.

B1: C963 (R1-32-like mAb, ref. 27) (antibody, V domains shown)
VH: QVQLVQSGAEVKKPGSSVRVSCKASGGTFSSFTITWVRQAPGQGLEWMGRIIPNLNIPNYAQRFQGRITITAEKSTSTAYLELSSLRSEDTAVYYCARGVGYSGSGSNWYFDLWGRGTLVTVSS
VL: QSVLTQPPSVSGAPGQRVTISCTGSSSNIGAGYDVHWYQQLPGTAPKLLISGHINRPSGVPDRFSGSTSGTSASLAITGLQAEDEADYYCQSYDSSLSDSVFGGGTKLTV
B2: C941 (R1-32-like mAb, ref. 27) (antibody, V domains shown)
VH: QVQLVQSGAEVKKPGSSVKVSCKASGGTSRSYPISWVRQAPGQGLEWMGRIIPIVGTANYAQRFQGRVTITADESTGTAYMELSSLRSEDTAVYYCARNRGYSDYGSVYYFDYWGQGTLVTVSS
VL: B1 VL with T44A, S51Y, G52R, H53N, T68K, E83D, D99G
B3: R1-32 (antibody, V domains shown)
VH: EVQLVESGAEVKKPGSSVKVSCKASGGTFSSYAISWVRQAPGQGLEWMGGIIPILGIANYAQKFQGRVTITADKSTSTAYMELSSLRSEDTAVYYCARENGYSGYGAAANFDLWGRGTLVTVSS
VL: QSVLTQPPSVSGAPGQRVTISCTGSSSNIGAGYDVHWYQQLPGTAPKLLIYGNSNRPSGVPDRFSGSKSGTSASLAITGLQAEDEADYYCQSYDSSLSGSVFGGGTKLTVL
notes: human IgG1
B4: C807 (R1-32-like mAb, ref. 29) (antibody, V domains shown)
VH: QVQLVQSGAEAKKPGSSVKVSCKASGGTFKSYIINWVRQAPGQGLEWMGEIIPIFGTANYAQKFQGRVTSTADESTSTAYMELSSLKSEDTAVYYCARGRGYSGYGASYYFDYWGQGTLVTVSS
VL: B3 VL with S26N, G52A, S96G
B5: C832 (R1-32-like mAb, ref. 29) (antibody, V domains shown)
VH: QVQLVQSGAEVKKPGSSVKVSCKASGGTFSSYSISWVRQAPGQGLEWMGRIIPILGIASYAQKFQGRVTITADKSTSTVYMELTGLRSDDTAVYYCARDRGYSDYGSHYYMDVWGKGTTVTVSS
VL: B3 VL with G52I, G99D
B6: C091 (R1-32-like mAb, ref. 28) (antibody, V domains shown)
VH: B5 VH with S33T, S59N, V79A, T84S, G85S, D89E, R100S, D104G, H108T
VL: B3 VL with G104T, G105V, L108V
B7: R1-32 (human IgG1 monoclonal antibody) (antibody, V domains shown)
VH: B3 VH
VL: B3 VL
B8: C092 (R1-32-like mAb, ref. 28) (antibody, V domains shown)
VH: QVQLVQSGAEVKKPGSSVKVSCKASGGSFTNHFISWVRQAPGQGLEWMGRIIPILGTANYAQNFQGRVMMTADKSTSTAYMELSSLRSEDTAVYYCARDSGYSGYGSTYYMDVWGKGTTVTVSS
VL: B3 VL with S26N, T44A, S54N, G70D, A82V, G99D, G104S, L108V
B9: FC08 (antibody, V domains shown)
VH: QLLQQSGAEVKKPGSSVKVSCKASGGTFSSYAISWVRQAPGQGLEWMGGIIPIIGIANYAQKFQGRVTITADKSTSTAYMELSSLRSEDTAVYYCARERGYSGYGAAYYFDYWGQGTLVTVSS
VL: SVLTQPPSVSGAPGQRVTISCTGSSSNIGAGYDVHWYQQLPGTAPKLLIYGNSNRPSGVPDRFSGSKSGTSASLAITGLQAEDEADYYCQSYDSSLSGSVFGGGTKLTVL
B10: FC08 (R1-32 related VH1-69 antibody, ref. 10) (antibody, V domains shown)
VH: B9 VH
VL: B9 VL
B11: C978 (R1-32-like mAb, ref. 27) (antibody, V domains shown)
VH: QVQLVQSGAEVKKPGSSVKVSCKASGATFSNYIISWVRQAPGQGLEWMGRTIPLLDIANYAQKFQGRVTITADKSTRIVYMHLGSLTSEDTAVYYCATGKGYSSSSAAYYFDHWGQGTLVTVSS
VL: QSVLTQPPSVSGAPGQRVTISCTGTNSNIGAGYDIHWYQQLPGTAPKLLIYGSNNRPSGVPDRFSGSKSGTSASLAITGLQAEDEADYYCQSYDSSLSGSEVFGGGTKLTVL

Columns and labels:
Test in all cases: BLI
Conditions in all cases: both partners purified
[1] = biological target: recombinant SARS-CoV-2 RBD-His protein (Sino Biological, 40592-V08B) (SARS-CoV-2, UniProt P0DTC2)
[2] = biological target: SARS-CoV-2 RBD (residues 319-541), wild type (SARS-CoV-2, wild type, UniProt P0DTC2)
SARS-CoV-2 Alpha RBD [3] = biological target: T1, SARS-CoV-2 Alpha RBD (SARS-CoV-2 Alpha (B.1.1.7), N501Y (stands in the printed letters))
SARS-CoV-2 Alpha RBD [4] = biological target: T1, SARS-CoV-2 Alpha RBD; remark: listed apart in the source
[5] = biological target: SARS-CoV-2 Alpha (B.1.1.7) variant RBD (SARS-CoV-2 Alpha (B.1.1.7), N501Y)
[6] = biological target: S-R/x2 SARS-CoV-2 spike (x2 disulfide-stabilized RBD 'down' spike) (SARS-CoV-2, wild type (Wuhan-Hu-1 spike), UniProt P0DTC2, stabilised)
[7] = biological target: S-R/PP SARS-CoV-2 spike (2P-stabilized spike with furin site changed to a single R) (SARS-CoV-2, wild type (Wuhan-Hu-1 spike), UniProt P0DTC2, stabilised)
[8] = biological target: S-R SARS-CoV-2 spike (unstabilized native spike with furin site changed to a single R) (SARS-CoV-2, wild type (Wuhan-Hu-1 spike), UniProt P0DTC2, stabilised)
[9] = biological target: S-R/x3 SARS-CoV-2 spike (x3 disulfide-stabilized RBD 'down' spike) (SARS-CoV-2, wild type (Wuhan-Hu-1 spike), UniProt P0DTC2, stabilised)
SARS-CoV-2 Alpha RBD [10] = biological target: T1, SARS-CoV-2 Alpha RBD; remark: listed apart in the source

Row | Binder | binding result [1] | binding result [2] | other results
1 | B1 | binds | binds | 
2 | B2 | binds | binds | 
3 | B3 |  |  | Kd (SARS-CoV-2 Alpha RBD [3]): 4.74 nM; koff (SARS-CoV-2 Alpha RBD [3]): 0.00195 s⁻¹; kon (SARS-CoV-2 Alpha RBD [3]): 411000 M⁻¹ s⁻¹; koff (SARS-CoV-2 Alpha RBD [4]): 0.000354 s⁻¹; kon (SARS-CoV-2 Alpha RBD [4]): 499000 M⁻¹ s⁻¹
4 | B4 | binds | binds | 
5 | B5 | binds | binds | 
6 | B6 | binds | binds | 
7 | B7 |  |  | Kd [5]: 0.71 nM; binding result [6]: binds; binding result [7]: binds; binding result [8]: binds; binding result [9]: binds
8 | B8 | binds | binds | 
9 | B9 |  |  | Kd (SARS-CoV-2 Alpha RBD [10]): 0.15 nM; koff (SARS-CoV-2 Alpha RBD [10]): 0.00025 s⁻¹; kon (SARS-CoV-2 Alpha RBD [10]): 1.69e+06 M⁻¹ s⁻¹
10 | B10 |  | binds | binding result [8]: binds; binding result [9]: binds
11 | B11 | binds | binds | 
